In PMC314469, “Protein Interaction Networks by Proteome Peptide Scanning” (PLoS Biology, 2004):

T1: Boi1 SH3 (BOI1_YEAST), P38041
T1 chain: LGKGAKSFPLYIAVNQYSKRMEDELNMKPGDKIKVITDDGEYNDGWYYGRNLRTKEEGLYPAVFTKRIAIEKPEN

T2: Boi2 SH3 (BOI2_YEAST), P39969
T2 chain: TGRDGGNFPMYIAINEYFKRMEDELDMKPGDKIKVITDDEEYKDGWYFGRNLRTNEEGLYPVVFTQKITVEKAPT

T3: Rvs167 SH3 (RV167_YEAST), P39743
T3 chain: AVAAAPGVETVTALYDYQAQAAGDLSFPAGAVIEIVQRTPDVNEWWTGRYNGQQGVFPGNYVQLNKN

T4: Yfr024 SH3 (LSB3_YEAST), P43603
T4 chain: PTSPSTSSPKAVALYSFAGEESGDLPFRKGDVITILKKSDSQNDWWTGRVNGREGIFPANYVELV

T5: Yhr016c SH3 (YSC84_YEAST), P32793
T5 chain: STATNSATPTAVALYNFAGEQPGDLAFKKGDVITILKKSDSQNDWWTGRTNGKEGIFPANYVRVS


Biological target: T1, Boi1 SH3 (BOI1_YEAST), P38041
Experiment: SPOT array

Binder | normalised SPOT signal, Boehringer light units (BLU); mean over the file's lines of this peptide
FWNPENPYKFVHPR [YEL011W 171-184] | 169
GAKPKIPSKLYQSV [YBR138C 124-137] | 68.4
FLPPPKPFRHTETK [YBR108W 587-600] | 295
FPDPNNPSKVQIRM [YAL051W 375-388] | 103
FPYPFKPSRVGVKY [YGL131C 440-453] | 178
FQPPPKPFRRSQSS [YBR108W 657-670] | 800
FNGPEPPIKRLKKA [YNL286W 148-161] | 255
GAIPRGPKKDDASF [YPR161C 424-437] | 94.3
FLQPVDPVKLDIPF [YLR399C 173-186] | 92.6
FREPDLPRKGLLED [YJR054W 476-489] | 133
FVSPRIPSRIVKNG [YOR086C 892-905] | 898
FPFPTPPDRVALSK [YMR128W 865-878] | 52.4
FSKPQEPVKAEEAE [YCR088W 393-406] | 76.7

The remaining lines, values ahead:

normalised SPOT signal, Boehringer light units (BLU); mean over the file's lines of this peptide | Binder
105 | FRFPRLPQKKKEEL [YGL130W 106-119]
867 | FYYPESPTKNLRPR [YML119W 56-69]
125 | FPYPGNPLKIINYE [YGR233C 862-875]
71.3 | FYEPLDPQKDKDMT [YJL155C 176-189]
346 | FTAPPVPTKKKSKN [YDR517W 316-329]
11000 | FVPPNLPMRRFKEI [YNL047C 421-434]
94 | FVIPGVPSKSYSLF [YGR065C 310-323]
96.3 | FVLPSLPRKNTYKV [YOR034C 343-356]
96.5 | FLSPGKPSKGTSLH [YML005W 163-176]

Biological target: T2, Boi2 SH3 (BOI2_YEAST), P39969
Experiment: SPOT array

Binder | normalised SPOT signal, Boehringer light units (BLU); mean over the file's lines of this peptide
FWNPENPYKFVHPR [YEL011W 171-184] | 55.6
GAKPKIPSKLYQSV [YBR138C 124-137] | 76.3
FLPPPKPFRHTETK [YBR108W 587-600] | 67.3
FPDPNNPSKVQIRM [YAL051W 375-388] | 21.5
FPYPFKPSRVGVKY [YGL131C 440-453] | 81.9
FQPPPKPFRRSQSS [YBR108W 657-670] | 308
FNGPEPPIKRLKKA [YNL286W 148-161] | 11.4
GAIPRGPKKDDASF [YPR161C 424-437] | 5.7
FLQPVDPVKLDIPF [YLR399C 173-186] | 24.4
FREPDLPRKGLLED [YJR054W 476-489] | 41.4
FVSPRIPSRIVKNG [YOR086C 892-905] | 1080
FPFPTPPDRVALSK [YMR128W 865-878] | 103
FSKPQEPVKAEEAE [YCR088W 393-406] | 23.9

Results, then the binder that gave them:

normalised SPOT signal, Boehringer light units (BLU); mean over the file's lines of this peptide | Binder
172 | FRFPRLPQKKKEEL [YGL130W 106-119]
44.1 | FYYPESPTKNLRPR [YML119W 56-69]
39 | FPYPGNPLKIINYE [YGR233C 862-875]
19.8 | FYEPLDPQKDKDMT [YJL155C 176-189]
44.8 | FTAPPVPTKKKSKN [YDR517W 316-329]
160 | FVPPNLPMRRFKEI [YNL047C 421-434]
48.3 | FVIPGVPSKSYSLF [YGR065C 310-323]
20.4 | FVLPSLPRKNTYKV [YOR034C 343-356]
34.6 | FLSPGKPSKGTSLH [YML005W 163-176]

Biological target: T3, Rvs167 SH3 (RV167_YEAST), P39743
Experiment: SPOT array

Binder | normalised SPOT signal, Boehringer light units (BLU); mean over the file's lines of this peptide
FWNPENPYKFVHPR [YEL011W 171-184] | 67.7
GAKPKIPSKLYQSV [YBR138C 124-137] | 42.7
FLPPPKPFRHTETK [YBR108W 587-600] | 1190
FPDPNNPSKVQIRM [YAL051W 375-388] | 28
FPYPFKPSRVGVKY [YGL131C 440-453] | 118
FQPPPKPFRRSQSS [YBR108W 657-670] | 8580
FNGPEPPIKRLKKA [YNL286W 148-161] | 70.5
GAIPRGPKKDDASF [YPR161C 424-437] | 48.1
FLQPVDPVKLDIPF [YLR399C 173-186] | 56.8
FREPDLPRKGLLED [YJR054W 476-489] | 33.2
FVSPRIPSRIVKNG [YOR086C 892-905] | 10100
FPFPTPPDRVALSK [YMR128W 865-878] | 114
FSKPQEPVKAEEAE [YCR088W 393-406] | 27.2

Now from value to binder:

normalised SPOT signal, Boehringer light units (BLU); mean over the file's lines of this peptide | Binder
1200 | FRFPRLPQKKKEEL [YGL130W 106-119]
28.6 | FYYPESPTKNLRPR [YML119W 56-69]
87 | FPYPGNPLKIINYE [YGR233C 862-875]
14.1 | FYEPLDPQKDKDMT [YJL155C 176-189]
86.4 | FTAPPVPTKKKSKN [YDR517W 316-329]
11800 | FVPPNLPMRRFKEI [YNL047C 421-434]
0 | FVIPGVPSKSYSLF [YGR065C 310-323]
16.4 | FVLPSLPRKNTYKV [YOR034C 343-356]
58.9 | FLSPGKPSKGTSLH [YML005W 163-176]

Biological target: T4, Yfr024 SH3 (LSB3_YEAST), P43603
Experiment: SPOT array

Binder | normalised SPOT signal, Boehringer light units (BLU); mean over the file's lines of this peptide
FWNPENPYKFVHPR [YEL011W 171-184] | 524
GAKPKIPSKLYQSV [YBR138C 124-137] | 313
FLPPPKPFRHTETK [YBR108W 587-600] | 36400
FPDPNNPSKVQIRM [YAL051W 375-388] | 98.1
FPYPFKPSRVGVKY [YGL131C 440-453] | 2790
FQPPPKPFRRSQSS [YBR108W 657-670] | 45100
FNGPEPPIKRLKKA [YNL286W 148-161] | 625
GAIPRGPKKDDASF [YPR161C 424-437] | 225
FLQPVDPVKLDIPF [YLR399C 173-186] | 0
FREPDLPRKGLLED [YJR054W 476-489] | 1350
FVSPRIPSRIVKNG [YOR086C 892-905] | 34100
FPFPTPPDRVALSK [YMR128W 865-878] | 834
FSKPQEPVKAEEAE [YCR088W 393-406] | 276

Other lines, results leading:

normalised SPOT signal, Boehringer light units (BLU); mean over the file's lines of this peptide | Binder
19500 | FRFPRLPQKKKEEL [YGL130W 106-119]
292 | FYYPESPTKNLRPR [YML119W 56-69]
49.4 | FPYPGNPLKIINYE [YGR233C 862-875]
121 | FYEPLDPQKDKDMT [YJL155C 176-189]
9160 | FTAPPVPTKKKSKN [YDR517W 316-329]
25900 | FVPPNLPMRRFKEI [YNL047C 421-434]
44.7 | FVIPGVPSKSYSLF [YGR065C 310-323]
4240 | FVLPSLPRKNTYKV [YOR034C 343-356]
437 | FLSPGKPSKGTSLH [YML005W 163-176]

Biological target: T5, Yhr016c SH3 (YSC84_YEAST), P32793
Experiment: SPOT array

Binder | normalised SPOT signal, Boehringer light units (BLU); mean over the file's lines of this peptide
FWNPENPYKFVHPR [YEL011W 171-184] | 248
GAKPKIPSKLYQSV [YBR138C 124-137] | -0
FLPPPKPFRHTETK [YBR108W 587-600] | 25000
FPDPNNPSKVQIRM [YAL051W 375-388] | 122
FPYPFKPSRVGVKY [YGL131C 440-453] | 260
FQPPPKPFRRSQSS [YBR108W 657-670] | 51000
FNGPEPPIKRLKKA [YNL286W 148-161] | 42.4
GAIPRGPKKDDASF [YPR161C 424-437] | 236
FLQPVDPVKLDIPF [YLR399C 173-186] | 117
FREPDLPRKGLLED [YJR054W 476-489] | 116
FVSPRIPSRIVKNG [YOR086C 892-905] | 9870
FPFPTPPDRVALSK [YMR128W 865-878] | 358
FSKPQEPVKAEEAE [YCR088W 393-406] | 773

More lines, now with the values ahead:

normalised SPOT signal, Boehringer light units (BLU); mean over the file's lines of this peptide | Binder
1370 | FRFPRLPQKKKEEL [YGL130W 106-119]
36.3 | FYYPESPTKNLRPR [YML119W 56-69]
0 | FPYPGNPLKIINYE [YGR233C 862-875]
129 | FYEPLDPQKDKDMT [YJL155C 176-189]
216 | FTAPPVPTKKKSKN [YDR517W 316-329]
23200 | FVPPNLPMRRFKEI [YNL047C 421-434]
66.7 | FVIPGVPSKSYSLF [YGR065C 310-323]
75.7 | FVLPSLPRKNTYKV [YOR034C 343-356]
243 | FLSPGKPSKGTSLH [YML005W 163-176]
